Test results taken from US20110256132A1 (published 2011).

Molecular target: T1, mature myostatin (recombinant, dimeric) (mouse polyprotein used for in-house …, UniProt O08689 268-376)
T1 construct: also called GDF-8; recombinant myostatin
T1 sequence: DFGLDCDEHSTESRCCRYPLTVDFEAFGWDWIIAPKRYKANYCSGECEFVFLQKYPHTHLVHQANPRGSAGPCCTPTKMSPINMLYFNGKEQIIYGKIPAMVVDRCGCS
Test: ActRIIb receptor binding assay (Example 2.5), mean IC50
Protocol: Recombinant soluble ActRIIb (R&D Systems 339-RBB) was coated in wells of an ELISA plate at 1 μg/ml in carbonate buffer overnight at 4° C. Plates were blocked (see Block solution above at 2.3) and washed following standard ELISA protocols. In parallel, 2 nM biotinylated myostatin (in-house, as described in 1.1, biotinylated material) was pre-incubated with an antibody dilution series consisting of 10B3, 10B3C, and a negative control (IgG1 isotype control) for 2 hours at 37° C. The biotinylated myostatin:antibody reactions were then added to the ActRIIb coated plate for 1 hour at 37° C. Standard wash procedures were followed prior to addition of 1:1000 diluted streptavidin-HRP conjugate (Dako P0397) and a further 37° C. incubation for 1 hour. Plates were again washed and assayed at absorbance 490 nm following OPD substrate (Sigma) and acid stop solution treatment Inhibition curves and IC50 values for the inhibition of myostatin activity are shown in FIG. 5 and Table 8 respectively.
H2L2 C91S_G55S F100G_Y, the developability enhanced molecule with the highest apparent potency in the A204 assay was Fc-disabled (by making the following substitutions, using EU numbering system: Leu 235 Ala; and Gly 237 Ala) as exemplified in SEQ ID NO: 99.

IC50: 0.161 nM
B1: mouse monoclonal antibody 10B3 (antibody, V domains shown)
VH: EVQLQQSGPELVKPGASVKISCKASGYSFTGYFMHWVKQSHGNILDWIGNIYPYNGVSNYNQRFKAKATLTVDKSSSTAYMELRSLTSEDSAVYYCARRYYYGTGPADWYFDVWGTGTTVTVSS
VL: DIKMTQSPSSMYASLRERVTITCKASQDINSYLSWFQQKPGKSPKTLIYRANRLVDGVPSRFSGSGSGQDYSLTISSLEYEDMGIYYCLQCDEFPLTFGAGTKLELK
notes: Mouse IgG2a/kappa from hybridoma; also called 10B3 mouse parental; 10B3 parental
